14 molecules from PMC10333884 (2023) can be followed below.

Non-standard residues stand in square brackets, D forms with d. No end group written: not given here. pS = N[C@@H](COP(=O)(O)O)C(=O)O

Experiment in all cases: FP
Experiment [1] deals with T1, Clathrin N‐terminal domain (NTD) (human, UniProt Q00610 1-364).
T1 chain: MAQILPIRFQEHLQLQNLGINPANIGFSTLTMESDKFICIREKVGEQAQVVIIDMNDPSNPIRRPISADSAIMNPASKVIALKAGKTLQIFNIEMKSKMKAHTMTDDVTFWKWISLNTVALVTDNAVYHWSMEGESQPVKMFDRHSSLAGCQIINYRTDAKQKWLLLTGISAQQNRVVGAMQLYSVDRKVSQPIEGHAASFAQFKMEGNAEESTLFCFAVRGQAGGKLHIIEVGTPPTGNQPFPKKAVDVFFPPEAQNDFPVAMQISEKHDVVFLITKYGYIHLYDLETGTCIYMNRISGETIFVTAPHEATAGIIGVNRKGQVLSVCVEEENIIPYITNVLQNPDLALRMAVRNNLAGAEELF

A further experiment deals with SNX27 PDZ (human, UniProt Q96L92 43-136).
Another experiment has as its target T2, TSG101 UEV (human, UniProt Q99816 2-145).
T2 chain: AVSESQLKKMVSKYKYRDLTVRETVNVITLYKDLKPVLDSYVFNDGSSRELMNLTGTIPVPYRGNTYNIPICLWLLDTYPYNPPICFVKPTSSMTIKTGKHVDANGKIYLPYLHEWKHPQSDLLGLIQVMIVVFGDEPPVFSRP

The next experiment deals with MAP1LC3A (human).

One may read the IC50 as the point on the concentration scale where inhibition reaches its midpoint. A higher IC50 goes with weaker potency in that assay. GGNLITFSPLQPGEF [HURP_(832–846), wild‐type] displayed an IC50 in experiment [1] of 318 µM. Molecule NLLLERDTEFTVCPD [CDC25C_(30–44), phosphomimetic (E)] had an IC50 with SNX27 PDZ of 1800 µM. QSIAREPSAPSIPTP [PDCD6IP_(711–725), wild‐type]: the IC50 with TSG101 UEV was 34 µM. In turn, YRHISFGGNLITF[pS]PLQPGEF [pS839 HURP_(826–846) peptide] showed an IC50 in experiment [1] of 11 µM. As for HSGNVTPTAPPYLQES [PIP4P2_(17–32), wild‐type], the concentration for half-maximal inhibition (IC50) in the experiment with TSG101 UEV stood at 29 µM. Consider NGCSSPTAPLSPMSP [GJA1_(269–283), wild‐type], for which, in the experiment with TSG101 UEV, the IC50 was 465 µM. Consider KKQLKRFETEEFVLL [ATG4C_(444–458), phosphomimetic (E)], for which inhibition with MAP1LC3A was half-maximal at 11 µM (IC50). KKQLKRFSTEEFVLL [ATG4C_(444–458), wild‐type] yielded a 50% inhibitory concentration (IC50) in the experiment with MAP1LC3A of 17 µM. NLLLERDTSFTVCPD [CDC25C_(30–44), wild‐type]: the IC50 in the experiment with SNX27 PDZ stood at 210 µM. GMVSSTSFNGG [DAXX_(606–616), wild‐type] came in with a concentration for half-maximal inhibition (IC50) with SNX27 PDZ of 1300 µM. With GGNLITFEPLQPGEF [HURP_(832–846), phosphomimetic (E)], in experiment [1], it took 70 µM to reach half-maximal inhibition (IC50). NLLLERDT[pS]FTVCPD [CDC25C_(30–44), phosphorylated (pS)] yielded an IC50 with SNX27 PDZ of 1000 µM. With KKQLKRF[pS]TEEFVLL [ATG4C_(444–458), phosphorylated (pS)], it took 5.5 µM to reach half-maximal inhibition with MAP1LC3A (IC50). As for GGNLITF[pS]PLQPGEF [pS839 HURP_(832–846)], the IC50 in experiment [1] came to 11 µM.
